In paper PMC10749193 (Frontiers in Immunology, 2023):

Molecular target: SARS-CoV-2 S (Wuhan)-His (1–1273 aa) expressed in HEK293T cells (SARS-CoV-2 Wuhan, UniProt P0DTC2)
Assay: western blot
Details: one partner purified

B1: anti-S2 monoclonal antibody 4A5 (antibody, V domains shown)
VH: QVKLEQSGPGILQPSQTLSLTCSFSGFSLSTSGMGVSWIRQSSGKGLEWLTHIYWDDDKRYNPSLKSRLTISKDTSRNQVFLKITSVDTADTATYYCARRRMITGLYYAMDYWGQGTSVTVSS
VL: DIVMTQSTLSLPVSFGDQVSISCRSSQSLANSYGITYLSWYLHKPGQSPQLLIYGISNRFSGVPDRFSGSGSGTDFTLKISTIKPEDLGMYYCLQGTHQPWTFGGGTKLEIK
  binding result: binds
